T1: FLAG-tagged p33 replication protein (Tomato bushy stunt virus, UniProt P15962 1-296)
T1 construct: p33 replication protein of Tomato bushy stunt virus (tombusvirus); also called FLAG-p33; source: yeast (BY4741, cof1 ts and act1 ts strains), CUP1 promoter, in detergent-solubilized membrane fraction
T1 sequence: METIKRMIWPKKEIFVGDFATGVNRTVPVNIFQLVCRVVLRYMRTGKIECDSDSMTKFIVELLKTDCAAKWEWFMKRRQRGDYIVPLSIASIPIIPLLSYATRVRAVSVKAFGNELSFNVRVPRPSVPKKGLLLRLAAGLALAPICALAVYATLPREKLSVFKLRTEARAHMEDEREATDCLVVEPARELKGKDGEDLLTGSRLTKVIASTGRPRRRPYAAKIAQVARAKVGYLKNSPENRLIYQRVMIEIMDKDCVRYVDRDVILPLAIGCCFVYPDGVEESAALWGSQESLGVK

B1: Vps23 ESCRT I (Vps23p ESCRT factor) (natural protein, yeast (S. cerevisiae), UniProt P25604 1-385, looked up)
chain: MSANGKISVPEAVVNWLFKVIQPIYNDGRTTFHDSLALLDNFHSLRPRTRVFTHSDGTPQLLLSIYGTISTGEDGSSPHSIPVIMWVPSMYPVKPPFISINLENFDMNTISSSLPIQEYIDSNGWIALPILHCWDPAAMNLIMVVQELMSLLHEPPQDQAPSLPPKPNTQLQQEQNTPPLPPKPKSPHLKPPLPPPPPPQPASNALDLMDMDNTDISPTNHHEMLQNLQTVVNELYREDVDYVADKILTRQTVMQESIARFHEIIAIDKNHLRAVEQAIEQTMHSLNAQIDVLTANRAKVQQFSSTSHVDDEDVNSIAVAKTDGLNQLYNLVAQDYALTDTIECLSRMLHRGTIPLDTFVKQGRELARQQFLVRWHIQRITSPLS
notes: Vps23p, ESCRT-I factor, cellular host factor in yeast; source: yeast (act1-132 ts and WT), co-purified with p33
B2: Vps4 AAA ATPase (Vps4p) (enzyme, yeast (S. cerevisiae), UniProt P52917 1-437, looked up)
chain: MSTGDFLTKGIELVQKAIDLDTATQYEEAYTAYYNGLDYLMLALKYEKNPKSKDLIRAKFTEYLNRAEQLKKHLESEEANAAKKSPSAGSGSNGGNKKISQEEGEDNGGEDNKKLRGALSSAILSEKPNVKWEDVAGLEGAKEALKEAVILPVKFPHLFKGNRKPTSGILLYGPPGTGKSYLAKAVATEANSTFFSVSSSDLVSKWMGESEKLVKQLFAMARENKPSIIFIDEVDALTGTRGEGESEASRRIKTELLVQMNGVGNDSQGVLVLGATNIPWQLDSAIRRRFERRIYIPLPDLAARTTMFEINVGDTPCVLTKEDYRTLGAMTEGYSGSDIAVVVKDALMQPIRKIQSATHFKDVSTEDDETRKLTPCSPGDDGAIEMSWTDIEADELKEPDLTIKDFLKAIKSTRPTVNEDDLLKQEQFTRDFGQEGN
notes: Vps4p AAA ATPase, cellular host factor in yeast; source: yeast (act1-132 ts and WT), co-purified with p33
B3: His6-tagged Osh6 protein (yeast Osh6p ORP) (natural protein, yeast (S. cerevisiae), UniProt Q02201 1-448, looked up)
chain: MGSKKLTVGSDSHRLSKSSFSSNKSSHSATKDQPIDTDDIDEDDESGHNIILNIISQLRPGCDLTRITLPTFILEKKSMLERVTNQLQFPEFLLQAHSEKDPLKRFLYVMKWYLAGWHIAPKAVKKPLNPVLGEYFTAYWDLPNKQQAYYISEQTSHHPPECAYFYMIPESSIRVDGVVIPKSRFLGNSSAAMMDGSTVLQFLDIKDGNGKPEKYVLTQPNVYVRGILFGKMRIELGDHMIIKSPNFQADIEFKTKGYVFGTYDAIEGTVKDYDGNAYYEISGKWNDVMYLKDLKQPRSSPKVFLDTHKESPLRPKVRPLSEQGEYESRKLWKKVTDALAVRNHPVATEEKFQIEDHQRQLAKKRIEDGVEFHPKLFRRSKPGEDLDYCIYKNIPVDEDPEKQIRSILQIAPILPGQQFTDKFFIPAFEKIKSQKKMIENEKQNPAKQ
notes: also called Osh6 ORP; 6xHis-Osh6p; source: yeast, GAL1 promoter (UpYC-NT-Gal1-OSH6), in detergent-solubilized membrane fraction
B4: Pbp2 RNA binding protein (natural protein, yeast (S. cerevisiae), UniProt P38151 1-413, looked up)
chain: MSTETTKPSITTTPTTVLVSPNTLKRKKGEDTSEEQLEAEIKRVALKDADSHSDNDHDSPDNVPSDVHLRMLCLVKHASLIVGHKGATISRIKSETSARINISNNIRGVPERIVYVRGTCDDVAKAYGMIVRALLEEHGNEDNGEDIEISINLLIPHHLMGCIIGKRGSRLREIEDLSAAKLFASPNQLLLSNDRILTINGVPDAIHIATFYISQTLLNFQMESPQKNVKRSIYYQPTQFNSVLIDHSQPNTIFHQRNHQYHPSDKLLSYKPNKNLPISSTLLSMATPQYTTASVANATAFQPNFVIPNVTVLDGPVISPAPGNHLLMNFVQQEIFIDEKFVGNVIGKDGKHINSVKESTGCSIIIQDPVEGSSERRLTIRGTFMASQAAIMLISNKIEIDRSNAERKRRSPL
notes: source: yeast (act1-132 ts and WT), co-purified with p33
B5: Tef1 eEF1A (Tef1p) (natural protein, yeast (S. cerevisiae), UniProt P02994 1-458, looked up)
chain: MGKEKSHINVVVIGHVDSGKSTTTGHLIYKCGGIDKRTIEKFEKEAAELGKGSFKYAWVLDKLKAERERGITIDIALWKFETPKYQVTVIDAPGHRDFIKNMITGTSQADCAILIIAGGVGEFEAGISKDGQTREHALLAFTLGVRQLIVAVNKMDSVKWDESRFQEIVKETSNFIKKVGYNPKTVPFVPISGWNGDNMIEATTNAPWYKGWEKETKAGVVKGKTLLEAIDAIEQPSRPTDKPLRLPLQDVYKIGGIGTVPVGRVETGVIKPGMVVTFAPAGVTTEVKSVEMHHEQLEQGVPGDNVGFNVKNVSVKEIRRGNVCGDAKNDPPKGCASFNATVIVLNHPGQISAGYSPVLDCHTAHIACRFDELLEKNDRRSGKKLEDHPKFLKSGDAALVKFVPSKPMCVEAFSEYPPLGRFAVRDMRQTVAVGVIKSVDKTEKAAKVTKAAQKAAKK
notes: Tef1p, eukaryotic elongation factor 1A, cellular host factor in yeast; source: yeast (act1-132 ts and WT), co-purified with p33
B6: Rpn11 deubiquitinase (enzyme, yeast (S. cerevisiae), UniProt P43588 1-306, looked up)
chain: MERLQRLMMNSKVGSADTGRDDTKETVYISSIALLKMLKHGRAGVPMEVMGLMLGEFVDDYTVNVVDVFAMPQSGTGVSVEAVDDVFQAKMMDMLKQTGRDQMVVGWYHSHPGFGCWLSSVDVNTQKSFEQLNSRAVAVVVDPIQSVKGKVVIDAFRLIDTGALINNLEPRQTTSNTGLLNKANIQALIHGLNRHYYSLNIDYHKTAKETKMLMNLHKEQWQSGLKMYDYEEKEESNLAATKSMVKIAEQYSKRIEEEKELTEEELKTRYVGRQDPKKHLSETADETLENNIVSVLTAGVNSVAIK
notes: Rpn11 deubiquitinase, cellular host factor in yeast; source: yeast (act1-132 ts and WT), co-purified with p33
B7: 6xHis-Vap27-1 (VAP protein, Scs2-like plant ortholog) (natural protein, UniProt Q8VZ95 1-256, looked up)
chain: MSNIDLIGMSNRDLIGMSNSELLTVEPLDLQFPFELKKQISCSLYLTNKTDNNVAFKVKTTNPKKYCVRPNTGVVLPRSTCEVLVTMQAQKEAPSDMQCKDKFLLQGVIASPGVTAKEVTPEMFSKEAGHRVEETKLRVTYVAPPRPPSPVHEGSEEGSSPRASVSDNGHGSEFSFERFIVDNKAGHQENTSEARALITKLTEEKQSAIQLNNRLQRELDQLRRESKKSQSGGIPFMYVLLVGLIGLILGYIMKRT
notes: Vap27-1, VAMP-associated protein, a plant ortholog of yeast Scs2p; also called Vap27-1 (Scs2-like); ER-localized Vap27-1; source: expressed in yeast, in detergent-solubilized membrane fraction
B8: Tdh2 GAPDH (Tdh2p) (enzyme, yeast (S. cerevisiae), UniProt P00358 1-332, looked up)
chain: MVRVAINGFGRIGRLVMRIALQRKNVEVVALNDPFISNDYSAYMFKYDSTHGRYAGEVSHDDKHIIVDGHKIATFQERDPANLPWASLNIDIAIDSTGVFKELDTAQKHIDAGAKKVVITAPSSTAPMFVMGVNEEKYTSDLKIVSNASCTTNCLAPLAKVINDAFGIEEGLMTTVHSMTATQKTVDGPSHKDWRGGRTASGNIIPSSTGAAKAVGKVLPELQGKLTGMAFRVPTVDVSVVDLTVKLNKETTYDEIKKVVKAAAEGKLKGVLGYTEDAVVSSDFLGDSNSSIFDAAAGIQLSPKFVKLVSWYDNEYGYSTRVVDLVEHVAKA
notes: Tdh2p, glyceraldehyde-3-phosphate dehydrogenase, cellular host factor in yeast; source: yeast (act1-132 ts and WT), co-purified with p33
B9: Cdc34 E2 enzyme (ubiquitin-conjugating enzyme) (enzyme, yeast (S. cerevisiae), UniProt P14682 1-295, looked up)
chain: MSSRKSTASSLLLRQYRELTDPKKAIPSFHIELEDDSNIFTWNIGVMVLNEDSIYHGGFFKAQMRFPEDFPFSPPQFRFTPAIYHPNVYRDGRLCISILHQSGDPMTDEPDAETWSPVQTVESVLISIVSLLEDPNINSPANVDAAVDYRKNPEQYKQRVKMEVERSKQDIPKGFIMPTSESAYISQSKLDEPESNKDMADNFWYDSDLDDDENGSVILQDDDYDDGNNHIPFEDDDVYNYNDNDDDDERIEFEDDDDDDDDSIDNDSVMDRKQPHKAEDESEDVEDVERVSKKI
notes: Cdc34 ubiquitin-conjugating enzyme, cellular host factor in yeast; source: yeast (act1-132 ts and WT), co-purified with p33

The values below come from paper PMC4749184, “Viral Replication Protein Inhibits Cellular Cofilin Actin Depolymerization Factor to Regulate the Actin Network and Promote Viral Replicase Assembly” (PLoS Pathogens, 2016).

The assay has as its target T1, FLAG-tagged p33 replication protein. Briefly: co-IP; FLAG-affinity column purification of FLAG-p33 (co-expressed with FLAG-p92) from detergent-solubilized membrane fraction of yeast after cross-linking with 1% formaldehyde for 1 h on ice; co-purified His6-tagged host proteins detected by Western blot with anti-His antibody; yeast expressing His6-p33 as control; WT (BY4741), cof1-8 ts, cof1-22 ts, act1-121 ts, act1-132 ts, act1-105 ts and act1-112 ts yeasts at …. As to conditions: partners not purified. On the technique in general: A western blot detects proteins with antibodies after separation by electrophoresis.
Take B1: the “co-purified with p33 from act1-132 yeast, percent of co-purification from WT yeast” value stood at 108%.

For B2, the “co-purified with p33 from act1-132 yeast, percent of co-purification from WT yeast” value came to 53%.

For the molecule B3, the “co-purified with p33 from act1-132 yeast, percent of co-purification from WT yeast” value stood at 258%.

Regarding B4, the “co-purified with p33 from act1-132 yeast, percent of co-purification from WT yeast” value was 85%. For B5 the value was 96%; for B6, 161%; for B7, 218%. For B8, the “co-purified with p33 from act1-132 yeast, percent of co-purification from WT yeast” value was 111%. Under B9 stands 207%.
